# In the nanobody polyreactivity screen of Harvey et al. (2022):
# Assay: yeast display, Sf9 membrane polyspecificity reagent, FACS + sequencing; frameworks hold sequencing errors
# How it was run: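 A nanobody's polyreactivity label depends on the gate it was sorted from. Yeast display cells were stained with 10% biotinylated, detergent-solubilized Sf9 membrane reagent for 1 hour at 4 °C, enriched on streptavidin microbeads and sorted by FACS. The low and high (top ~1%) gates were set on anti-HA fluorescence for expression and streptavidin fluorescence for reagent binding.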
row,Sequence,polyreactivity (PSR sort gate)
1,QVQLVESAAGLVQAGASLRLSCAASGRTSTQNAMGWYRQAPGKERELVAAITTGGGSTYYADSVKGRFTISRDNAKYTVYLQMNSLKPEDTAVYYCAARTPQRSEWTQYGYWGQGTQVTVSS,low polyreactivity
2,QVQLVESAAGLVQAGGSLRLSCAASGITFFQYTMGWYRQAPGKERELVAAISTSGARTYYADSVKGRFTISRDNAKNTVYLQMNSLKPEDTAVYYCAARTWRRPYYRPRYEYWAQGTQVTVSS,high polyreactivity
3,QVQLVESAAGLVQAGGSLRLSCAASGRTFQYNAIGWYRQAPGKETELVAAISSSGGSTYYADSVKGRFTISRDNAKNTVYLQLNSLKPEDTAVYYCNAYSQSWNFYGDGDYWGQGTQVTVSS,low polyreactivity
4,QVQLVESAAGLVQAGGSLRLSGAASGRIFRYYAMGCYRQAPGKEREFVAGITWSGGRTYYADSVKGRFTISRANAKNTVYLQMNTLKREDTAVYYCAADGWGYSFQWQDHDYWGQGTQVTVSS,low polyreactivity
5,QVQLVESAGGGVQAGGSLRLSCPASGIIFVPNTMGWYRQAPGKEREFVASISRRGGNTNYADSVKGRFTISRDNAKNTVYLQMNSLKPEDTAVYYCAKYSSSEGKYDYWGQGTQVTVSS,high polyreactivity
6,QVQLVESAGGIVQAGGSLRLRCAASGRTVVNSMGWYRQAPGKERELVAAISTNGGRTYYADSVKWRFTISRDNAKNTVYLQMNSLKPEDTAVYYCAKVLGIRPTYYYWGQGYQVTVSS,high polyreactivity
7,QVQLVESAGGLDQAGGSLPLSCAASGRIFRYNAMGWYRQAPGKERELVSAITWNGASTFYADSVKGRFTISRDNAKNSVYLLMNSLKPEDTAVYYCAYVRDFSGYWLWSYNLYDYWGQGTKVTVSS,high polyreactivity
8,QVQLVESAGGLDQAGGSLRLSCAASGFTFSVYVMGWYRQAPGKERELVASISKRGGSTTYADSVKGRFTISRDNAKNTVYLQMNSLKPEDTAVYYCAALGPGYYWGQGTQVTVSS,high polyreactivity
9,QVQLVESAGGLGQAGGSLRLSCAASGRIIVRNTMGWYRQAPGKDRELVARITGRGGTTYYADSVKGRFTISRDYAKNPVYFQMNSLKPEDTADYYCKAGKYLRLDPVGPNYSRKYGYWGQGTQVTVSS,low polyreactivity
10,QVQLVESAGGLLQTGGSLRLSCAASGRTLWYNAMGWYRQAPGKERELVAAISSGGSTNYADSVKGRFTISRDNAKHTVYLQMNSLKPEDTAVYYCAAWLAYSSRYGYWGQGTQVTVSS,low polyreactivity
11,QVQLVESAGGLVKAGGSLRLSCAAYGSTFSYYTMGWYRQAPGKERELVAAITRRGDSTYADSVKGRFTISRDNAKNTVYLQMNSLKPEDTAVYYCAADASVGVSGMDYWGQGTQVTVSS,low polyreactivity
12,QVQLVESAGGLVLAGGSLRLSCAASGYTVVRYAMGWYRQEPGKERELVAAISRSGGSTYYADSVKGRFTISRDNANNTVYLQMNSLNPEDTAVYYCNAYPYSYYDYDYWGQGTQVTVSS,high polyreactivity
13,QVQLVESAGGLVQAGARLRLSCAASGFTFQYYALGWYRQAPGKERELVATISTSGGNTYYADSVKGRFTITRDNAKNTVYLQMNSLKPEDTAVYYCAARRYRASSRGYGYWGQGTQVTVSS,high polyreactivity
14,QVQLVESAGGLVQAGGCLRLSCAACGSIFLYNAMGWYRQAPVKERELVAGITGGGGTNYADSVKGRFTISRDNAKNTVYLQMNSLKPEDTAVYYCAADPSGQFPYSYYNYDYDYWGQGTQVTVSS,low polyreactivity
15,QVQLVESAGGLVQAGGILRLSCAASGRIFPYYDMGWYRQAPGKERELVAAITWNGGSTYYADSVKGRFTISRDNANNTVYLQMNSLKPEDTAVYYCAVEPYYYGEDYWGQGTQVTVSS,low polyreactivity
16,QVQLVESAGGLVQAGGRLRLSCAASGSTFGIYAMGWYRQAPGKERELVAAISSGGSTNYADSVKGRFTISRDNAKNTVYLQMNSLKPEDTAVYYCAVESVYEYGGYVDSAYDYWGQGTQVTVSS,low polyreactivity
17,QVQLVESAGGLVQAGGSHRLSCAASGNIFYYYRMGWYRQEPGKESEFVAAISTSGGNTYYADSVKGRFTISRDNAKNTVYLQINSLKPEDTAVYYCAADDWPWGDAGVDYWGQGTQVTVSS,low polyreactivity
18,QVQLVESAGGLVQAGGSHRLSCPASGSIFDYNPMGWYTQAPGKESELVAAITSGGSTNYADSVKGRFTISRDNAKNTVYLHMNSLKPEDTAVYYCAADHDYYPSNLDFWGQGTQVTVSS,low polyreactivity
19,QVQLVESAGGLVQAGGSLRLICAASGSIFVKYAMGWYRQATGKERELVAAISRSGGSTYYADSVKGRFTISRDNAKNTVYLQMTSLKPEDTAVYYCAADGFRGDMYYWGQGTQVTVSS,low polyreactivity
20,QVQLVESAGGLVQAGGSLRLICAASGSIVASYPKGWYRQAPGKERELVAAISDGGGRTYYADSVKGRFTISRDNAKNTVYLQMNSLKPEDTAVYYCAAYAVYTYRRARVYWGQGTQVTVSS,high polyreactivity
21,QVQLVESAGGLVQAGGSLRLICDASGSTFGYYAIGWYRQAPGKEREVVAVINKSGGRTYYADSVKGRFTISRDNAKNTVYLQMNSLNPVDTAVYFCATRVTSTRHDYWGQGTQVTVSS,high polyreactivity
22,QVQLVESAGGLVQAGGSLRLSCAASGIILYYYAMGWYRHAPGKERELVAAISSGGNTYYADSVKGRFTISRDNAKNTVYLQMNSLKPEDTAVYYCAAVTVIGGEYDYWGQGTQVTVSS,low polyreactivity

row,Sequence,polyreactivity (PSR sort gate)
1,QVQLVESAGGLVQAGGSLRLSCAASGLTFSIYALGWYRQAAGKERELVAAITGRGGRTYYADSVKGRFPISRDNAKNTVYLQMNTLKPDDTAVYYCAARYRGTDFDYWGQGTQVTVSS,high polyreactivity
2,QVQLVESAGGLVQAGGSLRLSCAASGLTFVRYGMGWYRQAPGKERELVAAITSDDSTYYADSVKGSFTISRDNAQNTVYLQMNSLNPEDTAVYYCAARYTLYDTGESSRTYTGFIYWGLGTQVTVSS,low polyreactivity
3,QVQLVESAGGLVQAGGSLRLSCAASGNFGYNAIAWNRQAPGKETELVAAITSSGTSTYYADSVKGRLTISRDNAKNTVYLQMNSLKPEDTAVYYCAALPSGTWTGFGYWGQGTQVTVSS,low polyreactivity
4,QVQLVESAGGLVQAGGSLRLSCAASGRIFNSNAMGWYRQAPGKERELVASITSRGDSTFYADSVKGRFTISRDTAKNTVYLQMNSLKPEDTAVYYCAANGLYYRTPPVYSYDYWGQGTQVTVSS,low polyreactivity
5,QVQLVESAGGLVQAGGSLRLSCAASGRIFPYNVIGWYRQAPGKERELVAAISSGGTTDYADSVKGRFTISRDNAKNTVYLQMNSLKPEDTAVYYCAATYVYWTWGYDYWGQGTQVTVSS,low polyreactivity
6,QVQLVESAGGLVQAGGSLRLSCAASGRIYGIYAMGWYRQAPGKERELVASITDGTITNYADSVKGRFTISRDNAKNTVYLQKNSLKPEDTAVYYCAAGTQAHAYVVRPIEMDYWGQGTQVTVSS,low polyreactivity
7,QVQLVESAGGLVQAGGSLRLSCAASGRNLYQYAMGWYRQAPGKERELVAAITWNGGSTYYADSVKGRFTISRDNAKNTVYLQINSLKPEDTAVYYCAADSVRPWYAYKAHDYWGQGTQVTVSS,low polyreactivity
8,QVQLVESAGGLVQAGGSLRLSCAASGRTFCGNAMGWYRQAPGKERELVAAITSGGSTYYADSVKGRFTISRDNAKNTVYLQMNSLKPEDTAVYYCATRRIYKWYRYYYWGQGTQVTVSS,high polyreactivity
9,QVQLVESAGGLVQAGGSLRLSCAASGRTFIQYAMGWYRQAPGKERELVAVIRWSGGRTYYADTVKGRFTISRDNAKNTVYLQMNSLKPEDTAVYYCAKRSGSTFDWGQGTQVTVSS,high polyreactivity
10,QVQLVESAGGLVQAGGSLRLSCAASGRTFVGNAMGWYRQAPGTERELVADITWSGDITYYADSVKGRFTISRDNAKNTVYLQMNSLKPDDTAVYYCAADYHRRRTDYDYWGQGTQVTESS,low polyreactivity
11,QVQLVESAGGLVQAGGSLRLSCAASGRTLYRYAMGWYSQAPGKERELVAAIRWSGGSTYYADSVKGRFTISRDNAKNTVYLQMNSLKPEDTAVYYCNAGRSWRRTHYDYWGQGTQVTVSS,high polyreactivity
12,QVQLVESAGGLVQAGGSLRLSCAASGRTSDGYAMGWSRQAPGKERELVAGITEGGGDTYYADSVKGRFTISRDNAKNTVYLQMNSLKTEDTAVYYCAKDLRRYLSWWYRYPYDYWGQGTQVTVSS,low polyreactivity
13,QVQLVESAGGLVQAGGSLRLSCAASGRTSVIYAMGWYRQAPGKERELVASIRRGGSTSYADSVKGRFTISRDNAKNTVYLQMNSLKPEDTAVYYCARETLGGTYLGDYWGQGTQVTVSS,high polyreactivity
14,QVQLVESAGGLVQAGGSLRLSCAASGSILTSYAMGWYRQAPGKERELVAAINGSGGSTFYADSVKGRFTISRDNAKNTVYLQMNSLKPEDTAVYYCNTGGPRGTTYDYWGQGTQVTVSS,low polyreactivity
15,QVQLVESAGGLVQAGGSLRLSCAASGSLFSLYAMGWYRQAPGKERELVAAITQSGGTKFYADSVKGRFTISRDNAKNTVYLQMNRLKPEDTAVYYCAAEWYRCYVPLGVAGEYDYWGQGTQVTVSS,low polyreactivity
16,QVQLVESAGGLVQAGGSLRLSCAASGSTFGLNAMGRYRQAPGKERELVAAITRSGATTYYADSVKGRFTISRDNAKNTVYLKMNSLKPEDTAVYYCNKVYRPYTKRYYWGQGTQVTVSS,high polyreactivity
17,QVQLVESAGGLVQAGGSLRLSCAASGSTFTYKGMGWYRQAPGKERELVASISSRGGSTYYADSVKGRFTISRDNAKNTVYLQMNSLKPDDTAVYYCAAVARARARTPWLGRGYWGQVTQVTVSS,high polyreactivity
18,QVQLVESAGGLVQAGGSLRLSCAASGSTFYAYALGWYRQAPGKERELVAAISSDGTNYADSVKGRFTISRDNAKNTVYLQMNSLKPEDTSVYYCDADLLLYSSQDNDYWGQGTQVPVSS,low polyreactivity
19,QVQLVESAGGLVQAGGSLRLSCAASGSTLHYYAMGRYRQAPGKERELVAGISGSGGSTYYADSVKGRFTISRDNAKNTVYLQMNSLKPEDTAVYYCAADAYVSSQPMDYWGQGTQVTVSS,high polyreactivity
20,QVQLVESAGGLVQAGGSLRLSCAASGSTLYGYVMGWYRQAPGKERELVAAITWSSGYTYYADSVKGRFTISRDNAKITVYLQMNILKPVDTAVYYCAVRDRSPYGYYYWGQGTQVTVSS,low polyreactivity
21,QVQLVESAGGLVQAGGSLRLSCAPSGFTFALYAMRWYRQAPGNERELVAANTRSGRTKYADSVKGRFTISRDNAKNTVYLQMNSLKPEDTAVYYCAALFRYYVTTRFNYWGQGTQVTVSS,high polyreactivity
